Test results published in the supplement of paper PMC11136658.

System: peptide library, one residue held at a place counted from the Y acceptor
Experiment: relative phosphorylation of the sub-library (ratio to the mean residue at this position); higher = residue favoured
In short: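 Every value reflects phosphorylation relative to the mean randomized residue. The sum of the 18 randomized residues, or 16 in the Ser/Thr-free library, served to normalize intensities at each position, which were then multiplied by that number. Intensities came from phosphorimaging with ImageQuant of biotinylated Tyr-centred peptides captured on streptavidin membranes after 90 min with purified recombinant kinases and 50 μM ATP plus γ-32P-ATP.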

Sequence of PDGFRB, construct: aa557-end, human (P09619 557-1106, looked up): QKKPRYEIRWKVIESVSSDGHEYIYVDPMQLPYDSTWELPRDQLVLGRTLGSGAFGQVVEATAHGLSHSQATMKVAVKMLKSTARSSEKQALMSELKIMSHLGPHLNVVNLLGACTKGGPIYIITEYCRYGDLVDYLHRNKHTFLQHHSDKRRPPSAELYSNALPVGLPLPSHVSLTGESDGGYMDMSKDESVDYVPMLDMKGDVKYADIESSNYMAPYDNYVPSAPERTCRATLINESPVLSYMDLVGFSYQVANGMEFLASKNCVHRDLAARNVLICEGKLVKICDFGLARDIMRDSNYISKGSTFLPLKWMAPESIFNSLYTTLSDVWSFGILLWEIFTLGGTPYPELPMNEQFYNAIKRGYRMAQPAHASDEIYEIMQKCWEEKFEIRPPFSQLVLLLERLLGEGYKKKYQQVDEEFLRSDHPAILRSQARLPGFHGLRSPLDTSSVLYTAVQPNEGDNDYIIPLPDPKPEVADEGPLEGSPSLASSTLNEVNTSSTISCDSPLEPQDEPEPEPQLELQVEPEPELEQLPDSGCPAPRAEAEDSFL
Sequence of NTRK3, construct: aa510-end, human (Q16288 510-839, looked up): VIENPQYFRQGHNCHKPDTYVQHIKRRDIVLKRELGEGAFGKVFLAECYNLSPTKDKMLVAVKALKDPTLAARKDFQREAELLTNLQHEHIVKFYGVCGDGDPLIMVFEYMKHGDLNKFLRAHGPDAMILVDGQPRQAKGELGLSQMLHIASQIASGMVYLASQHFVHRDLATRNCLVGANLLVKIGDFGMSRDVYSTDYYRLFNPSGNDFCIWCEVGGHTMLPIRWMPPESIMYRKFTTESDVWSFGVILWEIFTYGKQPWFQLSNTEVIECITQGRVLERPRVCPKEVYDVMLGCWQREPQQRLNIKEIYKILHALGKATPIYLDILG

NTRK3, construct: aa510-end, human (from UniProt Q16288)
relative phosphorylation
Details	at +1	at +2	at +3	at +4	at +5	at -1	at -2	at -3	at -4	at -5
A fixed	1.69	0.892	0.734	0.952	1.02	0.783	1.09	0.974	1.11	1.07
D fixed	0.49	0.785	0.467	0.945	0.698	2.14	1.23	1.2	1.15	1.18
E fixed	0.8	1.08	0.378	1.29	0.752	1.3	1.51	1.47	1.61	1.17
F fixed	1.63	1.19	1.77	1.06	1.2	0.893	0.809	1.08	1.33	0.973
G fixed	0.753	0.459	0.63	1.37	1.12	0.495	1.19	1.08	1.22	1.35
H fixed	1.43	0.887	0.884	1.15	1.21	1.47	1.1	1.26	0.913	0.977
I fixed	1.77	1.04	2.41	0.792	0.939	1.38	0.831	0.755	0.902	0.965
K fixed	0.14	0.714	0.269	0.674	0.867	0.149	0.635	0.559	0.657	0.717
L fixed	0.821	1.09	2.05	0.72	1	1.24	0.776	0.724	0.961	0.986
M fixed	1.53	1.08	1.55	1.11	0.978	0.745	0.654	0.775	0.753	1.02
N fixed	0.322	1.11	0.403	0.855	0.687	2.5	1.17	1.41	0.809	1.22
P fixed	0.269	0.874	0.906	1.63	1.6	1.11	1.12	0.994	1.14	1.18
Q fixed	0.686	1.02	0.485	0.908	0.702	0.756	1.11	0.791	1.01	0.943
R fixed	0.173	1.05	0.375	0.821	0.975	0.196	0.731	0.682	0.641	0.87
S fixed	0.83	1.02	0.77	0.869	0.961	0.701	1.2	1.14	0.748	0.814
T fixed	0.871	0.983	0.741	0.862	0.919	0.784	1	1.04	0.684	0.88
V fixed	1.95	0.976	1.64	0.786	0.807	0.872	0.87	0.738	0.823	0.734
W fixed	1.85	1.76	1.54	1.21	1.55	0.48	0.989	1.32	1.53	0.951
pThr fixed	1.61	0.745	0.374	0.914	0.625	0.999	1	0.982	0.995	0.973
pTyr fixed	2.92	1.81	0.837	1.17	0.96	7.29	1.63	1.86	1.64	1.2

PDGFRB, construct: aa557-end, human (from UniProt P09619)
relative phosphorylation
Details	at +1	at +2	at +3	at +4	at +5	at -1	at -2	at -3	at -4	at -5
A fixed	1.1	0.618	0.621	0.809	0.959	0.751	0.921	0.883	1.02	0.916
D fixed	0.263	0.542	0.332	0.816	0.825	1.46	0.994	1.26	1.11	1.13
E fixed	0.377	0.815	0.245	0.817	0.757	0.988	1.08	1.26	0.996	1.12
F fixed	1.49	1.41	1.54	0.86	0.93	1.33	0.75	0.807	1.01	0.902
G fixed	0.536	0.452	0.617	1.01	1.11	0.532	1.18	1.03	1.15	1.11
H fixed	1.25	0.986	0.975	1.25	1.04	1.96	1.27	1.08	1.08	1.08
I fixed	1.91	1.04	2.13	0.898	0.769	1.12	0.745	0.707	0.816	0.877
K fixed	0.561	1.02	0.776	1.17	1.15	0.534	1.02	0.997	1.05	1.06
L fixed	0.96	1.12	1.57	0.854	0.906	0.898	0.88	0.752	0.793	0.843
M fixed	0.964	1.2	1.3	0.978	0.852	0.818	0.76	0.857	0.816	0.892
N fixed	0.451	0.899	0.775	0.976	1.12	1.58	1.28	1.31	1.03	1.12
P fixed	0.259	0.732	0.857	0.909	1.08	0.742	1.05	1.08	1.16	0.995
Q fixed	1.05	0.969	0.715	1.14	1	1.11	1.23	1.12	1.14	1.21
R fixed	0.668	1.67	1.09	1.5	1.41	0.56	1.2	1.19	1.14	1.37
S fixed	0.828	0.663	0.733	0.958	1.2	0.696	1.16	1.08	0.87	0.916
T fixed	1.27	0.75	0.711	0.965	0.96	0.872	0.958	0.923	0.759	0.76
V fixed	2.65	0.96	1.58	0.881	0.768	1.05	0.752	0.744	0.776	0.721
W fixed	1.41	2.14	1.42	1.2	1.15	0.997	0.787	0.924	1.28	0.986
pThr fixed	0.867	0.439	0.272	0.505	0.575	0.682	0.836	0.865	0.87	0.845
pTyr fixed	1.15	1.84	0.4	0.809	0.751	1.06	1.08	1.19	1.29	1.01

MST1R (from UniProt Q04912)
relative phosphorylation
Details	at +1	at +2	at +3	at +4	at +5	at -1	at -2	at -3	at -4	at -5
A fixed	0.871	0.845	0.68	0.963	1.06	0.744	0.976	0.932	1.03	0.978
D fixed	0.356	0.803	0.406	0.696	0.865	1.38	1.03	1.2	1.02	0.894
E fixed	0.55	0.767	0.281	0.622	0.874	1.01	0.864	1.06	0.966	0.851
F fixed	1.62	0.938	1.28	1.1	0.582	1.06	0.794	0.996	1.1	1.1
G fixed	0.645	0.821	0.766	1.17	1.25	0.665	1.38	1.21	1.25	1.13
H fixed	1.3	0.906	0.968	1.11	1.03	1.12	0.938	0.991	0.847	0.989
I fixed	1.51	1	2.14	0.923	0.473	1.36	0.957	0.801	0.85	0.932
K fixed	0.618	1.14	0.612	0.921	1.66	0.806	1.04	1	1.08	1.13
L fixed	1.32	1.15	1.67	0.924	0.626	1.29	0.903	0.937	1.04	1.07
M fixed	1.15	0.99	1.32	1.1	0.715	0.904	0.685	0.845	0.941	0.974
N fixed	0.594	1.13	0.492	0.82	1.23	1.25	0.978	1.01	0.796	0.864
P fixed	0.672	0.967	1.17	1.03	1.57	0.768	1.31	1.09	1.16	1.07
Q fixed	1.04	0.996	0.577	1.04	1.16	0.977	1.07	1.01	0.996	0.946
R fixed	0.922	1.3	0.862	1.34	1.75	0.757	1.28	1.18	1.09	1.18
S fixed	0.901	0.95	0.712	0.897	1.25	0.777	1.23	1.2	0.87	0.974
T fixed	0.876	0.792	0.623	0.85	1.17	0.899	0.973	0.91	0.821	0.884
V fixed	1.46	1.04	1.36	0.901	0.579	1.15	1.02	0.728	0.89	0.939
W fixed	1.36	1.2	1.41	1.34	0.575	0.762	0.77	0.997	0.953	0.953
pThr fixed	0.564	0.981	0.277	0.414	0.638	1.16	1.02	0.95	0.758	0.795
pTyr fixed	1.73	1.79	0.651	1.11	0.728	2.14	1.1	1.13	1.04	0.922
